Source: patent publication US20100095387A1, “METHODS AND REAGENTS FOR SCREENING NEW DRUGS AND FOR TREATING ION PUMP ASSOCIATED DISORDERS AND DISEASES” (priority 2005, published 2010)
“Also recorded” adds a separate entry of the source.

Assays:
[1] = molecular target: agrin receptors (Mus musculus, UniProt Q6PIC6); test: Agrin receptor immunohistochemistry, binding of short agrin fragments to live cortical neurons
Procedure: The distribution of agrin receptors was studied using agrin deletion fragments as affinity probes. Neurons, plated on glass coverslips, were washed briefly (1-2 min) in cold PBS containing 10 mM EDTA followed by a second wash in cold PBS alone before incubation for 15 min at 4° C. with 1 pM recombinant mouse agrin in NBM. In some experiments, labeling with mouse agrin was performed in the presence of various concentrations of rat rC-Ag95y4z8 or rC-Agy0z0. Control cultures were treated with vector control protein or an equivalent volume of vehicle in which the recombinant agrin was dissolved. Cells were then washed in cold NBM, fixed for 40 min on ice in 4% PFA in PBS, then washed in PBS and blocked for 1 h in PBSB. Recombinant agrin was detected through the COOH-terminal 6× polyhistidine tag using an anti-his antibody (1:500; Invitrogen). In experiments where cells were double labeled for synaptophysin, the anti-synaptophysin:antiserum (1:400) was also added at this step. Incubations were performed overnight at 4° C. in PBSB, followed by labeling with fluorescein conjugated goat anti-mouse and Texas red labeled anti-rabbit antibodies as described in the previous paragraphs. In some experiments, the amount of mouse agrin bound was estimated by digital photomicrography using the public domain NIH Image program (http://rsb.info.nih.gov/nih-image/).

[2] = molecular target: T1, α3Na+/K+-ATPase (Mus musculus, UniProt Q6PIC6); test: Na+ imaging (SBFI-AM) of cultured cortical cells; format: cell-based
[3] = test system: cardiac myocytes; test: Spontaneous contraction frequency of cultured cardiac myocytes; format: cell-based, mouse; conditions: Agrn+/− and Agrn−/− myocytes grown in fragment; listed as C-Ag208
Procedure: FIG. 17. Cardiac myocyte contraction is agrin dependent. Cardiac myocytes were prepared from hearts of individual embryos produced by heterozygous pairings. The genotype of cultures was determined by PCR analysis of tissue samples from each embryo. Myocytes were maintained in 199 medium containing 10% FCS as described (Mitcheson et al., 1998). At 5 days in culture, the frequency of spontaneous contractions was determined by counting contractions in myocytes from 5 random fields at 300× magnification for 30 seconds. Contraction frequency is dependent on Agrn gene dosage such that Agrn−/−>Agrn+/−>Agrn+/+. Addition of C-Ag208 to the growth medium rescues the Agrn mutant phenotype whereas C-Ag15 increased the contraction frequency of wild type myocytes to a level similar to Agrn−/− cells. Bars show mean±SEM for a minimum of 2 independent platings from 3 embryos, except for Agrn+/−treated with C-Ag208, which was a single plating of 2 embryos. All data were collected blind with respect to genotype and agrin treatment. *** p≦0.001. ANOVA with Bonferroni post-hoc pair-wise comparison.
Quantitative studies confirmed and extended these observations by showing that the frequency of myocyte contraction is dependent on agrin gene dose: Agrn−/− myocyte contraction frequency is about 2-fold higher and Agrn+/− 1.5-fold higher than Agrn+/+ myocytes (FIG. 17). To learn whether the effect of the Agrn mutation on myocyte contraction is a direct result of the loss of agrin expression the effects of growing the cells in media supplemented with C-Ag208, an active agrin fragment, or C-Ag15, the agrin antagonist was next examined.

[4] = molecular target: T2, α3 subunit of the Na+/K+-ATPase (Mus musculus, UniProt Q6PIC6); test: Chemical cross-linking of agrin fragments to cortical neurons, immunoprecipitation and immunoblot; format: binding; conditions: immunoprecipitation with phosphotyrosine antibody mAb4G10
T2 construct: a 110 kDa band characteristic of the native α3Na+/K+-ATPase; endogenous in cells; host or cells: primary mouse cortical neurons, 10-16 days in culture
Procedure: Membrane impermeant chemical cross-linking agents BS^3 and DMA were used to stabilize the bond between agrin and its binding sites on cell surface membranes. Cultured neurons were washed briefly in PBS containing 10 mM EDTA followed by preincubation with one or more agrin fragment in PBS^2+ for 30 minutes at room temperature and then cooled on ice prior to addition of a 10× solution of cross-linking agent to a final concentration of 0.1 mM. The cross-linking reaction was allowed to proceed for 30 minutes after which any unreacted cross-linker was quenched and removed by washing with ice cold PBS^2+ containing 50 mM ethanolamine. For immunoblot analysis, cells were scraped into ice-cold TI buffer (20 mM Tris, pH 7.4; 10 mM EDTA; protease inhibitors (Sigma, P8340)) then Dounce homogenized and membrane fraction recovered by centrifugation. For the immunoprecipitation studies, cells were scraped and homogenized in TI buffer containing 150 mM NaCl and 0.5% Triton X-100. Cell extracts were cleared by centrifugation and aliquots of the detergent soluble fraction incubated with the appropriate antibody at 4° C. overnight. Antigen-antibody complexes were precipitated with either protein A or protein G and resuspended in SDS-PAGE sample buffer for immunoblot analysis.
Ligand induced phosphorylation is a common first step in membrane receptor activation and inhibition of tyrosine kinase activity blocks agrin signalling in central nervous system neurons. To determine if agrin induced phosphorylation of the putative agrin receptor, membranes from neurons cross-linked to C-Ag208 or C-Ag15, alone or in combination, were dissolved, in a detergent-containing buffer and aliquots immunoprecipitated with RAg1 or the phosphotyrosine antibody mAb4G10 (Upstate). Immunoprecipitated proteins were analyzed by immunoblotting with a monoclonal antibody (9E10.2, Invitrogen) against the COON-terminal myc tag on the agrin fragments.
To confirm the results of the mass spectrometry the ability of different α-subunit antibodies to recognize the putative agrin-Na^+/K^+-ATPase complex was tested. […]

[5] = molecular target: T1, α3Na+/K+-ATPase; test: Whole cell current clamp of cultured cortical neurons, channel blockers present; format: cell-based; conditions: fragment alone
[6] = test system: cultured cortical neurons; test: Firing properties of cultured cortical neurons in normal external solution; format: cell-based, mouse; conditions: normal external solution
[7] = test system: layer V neurons in acute cortical slices; test: Whole cell current clamp of layer V neurons in acute cortical slices; format: cell-based, mouse

B1: rC-Agy4z8: soluble 95-kD COOH-terminal fragment of rat agrin, active "neural" isoform (protein)
chain: AATGTTAAMATARATTVSRLPASSVTPRVYPSHTSRPVGRTTAPPTTRRPPTTATNMDRPRTPGHQQPSKSCDSQPCLHGGTCQDQDSGKGFTCSCTAGRGGSVCEKVQPPSMPAFKGHSFLAFPTLRAYHTLRLALEFRALETEGLLLYNGNARGKDFLALALLDGRVQFRFDTGSGPAVLTSLVPVEPGRWHRLELSRHWRQGTLSVDGETPVVGESPSGTDGLNLDTNLYVGGIPEEQVAMVLDRTSVGVGLKGCIRMLDINNQQLELSDWQRAAVQSSGVGECGDHPCLPNPCHGGALCQALEAGMFLCQCPPGRFGPTCADEKSPCQPNPCHGAAPCRVLSSGGAKCECPLGRSGTFCQTVLETAGSRPFLADFNGFSYLELKGLHTFERDLGEKMALEMVFLARGPSGLLLYNGQKTDGKGDFVSLALHNRHLEFCYDLGKGAAVIRSKEPIALGTWVRVFLERNGRKGALQVGDGPRVLGESPKSRKVPHTMLNLKEPLYIGGAPDFSKLARGAAVSSGFSGVIQLVSLRGHQLLTQEHVLRAVDVSPFADHPCTQALGNPCLNGGSCVPREATYECLCPGGFSGLHCEKGLVEKSVGDLETLAFDGRTYIEYLNAVIESPETLDSRALFSEKALQSNHFELSLRTEATQGLVLWIGKAAERADYMALAIVDGHLQLSYDLGSQPVVLRSTVKVNTNRWLRIRAHREHREGSLQVGNEAPVTGSSPLGATQLDTDGALWLGGLQKLPVGQALPKAYGTGFVGCLRDVVVGHRQLHLLEDAVTKPELRPCPTP
C-Ag20z8 labeling ([1]; 1:100 molar ratio of C-Ag20z8 to rC-Agy4z8): barely detectable | binding of C-Ag20z8, C-Ag20z0 and C-Ag15 ([1]; large (500-fold molar) excess of rat agrin): completely blocked

B2: C-Ag20z8: C-Ag20 isoform having the z8 splice variant, SEQ. ID NO. 2 (protein)
chain: MDPRTYIEYLNAVTESELTNEIPAEKALQSNHFELTLRTEATQGWLVLWIGKAAERADYMALAIVDGHLQLSYDLASQPVVLRSTVKVNTNRWLRVRAHREHREGSLQVGNEAPVTSSSPLGATQLDTDGALWLGGLQKLPVGQPLPKAYGTGFVGCLRNVVGHRQLHLLEDAVTKPELRPCPTLNSKLGPEQKLISEEDLNSAVDHHHHHH
modifications: Synthetically produced sequence
neuronal intracellular Na+ ([2]; fragment or ouabain alone, neurons): rapid increase | intracellular Na+ in non-neuronal cells ([2]; non-neuronal cells): unaffected | contraction frequency [3]: significant decrease; also recorded: rescues | tyrosine phosphorylation of the cross-linked complex [4]: phosphorylated | effect on neuron membrane potential [5]: rapid and reversible depolarization

B3: C-Ag20z0: C-Ag20 isoform having the z0 splice variant, SEQ. ID NO. 1 (protein)
chain: MDPRTYIEYLNAVTESEKALQSNHFELTLRTEATQGWLVLWIGKAAERADYMALAIVDGHLQLSYDLASQPVVLRSTVKVNTNRWLRVRAHREHREGSLQVGNEAPVTSSSPLGATQLDTDGALWLGGLQKLPVGQPLPKAYGTGFVGCLRNVVGHRQLHLLEDAVTKPELRPCPTLNSKLGPEQKLISEEDLNSAVDHHHHHH
modifications: Synthetically produced sequence
membrane potential [6]: rapidly depolarized | action potentials ([7]; bath application of fragment alone): appearance of high frequency action potentials | membrane depolarization ([7]; bath application, slices from 6-11 day-old mice): 9.6±2.22 mV | effect on neuron membrane potential [5]: rapid and reversible depolarization
